Measurements: US20170247465A1, “COMBINATION THERAPY FOR TREATMENT OF CANCER” (OncoMed Pharmaceuticals, Inc., priority 2014, published 2017)

Experiments:
Type in all cases: in vivo, NOD/SCID mice
[1] = system: OMP-B90 breast tumor cells; test: OMP-B90 breast tumor xenograft, staggered dosing of Wnt inhibitors and paclitaxel (Example 9); details: Wnt pathway inhibitor 25 mg/kg every two weeks, administered 2 days prior to paclitaxel 10 mg/kg once a week, i.p., FIG. 7
Protocol: FIG. 7A-7B. Inhibition of breast tumor growth in vivo by a Wnt pathway inhibitor in combination with a taxane using a staggered dosing schedule. FIG. 7A. OMP-B90 breast tumor cells were injected subcutaneously into NOD/SCID mice. Mice were treated with control antibody (-•-), paclitaxel (-▴-), a combination of OMP-18R5 and paclitaxel, where OMP-18R5 was administered on the same day as paclitaxel (-□-), or a combination of OMP-18R5 and paclitaxel, where OMP-18R5 was administered 2 days prior to administration of paclitaxel (-⋄-). FIG. 7B. OMP-B90 breast tumor cells were injected subcutaneously into NOD/SCID mice. Mice were treated with control antibody (-•-), OMP-54F28 (-▪-), paclitaxel (-▴-), a combination of OMP-54F28 and paclitaxel, where OMP-54F28 was administered on the same day as paclitaxel (-□-), or a combination of OMP-54F28 and paclitaxel, where OMP-54F28 was administered 2 days prior to administration of paclitaxel (-⋄-). OMP-18R5, OMP-54F28 and control antibody were administered at 25 mg/kg and paclitaxel was administered at 10 mg/kg. […]
Single cell suspensions of xenograft OMP-B90 breast tumor cells were injected subcutaneously into 6-8 week old NOD/SCID mice. […] Tumor growth was monitored and tumor volumes were measured with electronic calipers at the indicated time points. Data are expressed as mean±S.E.M.

[2] = system: cancer stem cells in OMP-LU77 lung tumors; test: Limiting dilution assay, cancer stem cell frequency in OMP-LU77 lung tumors (Example 7); details: tumors from mice treated with vantictumab administered prior to paclitaxel; 50, 150, 500 cells implanted, 79 days; FIG. 5B
Excerpt: FIGS. 5A-5B. Cancer Stem Cell frequency. FIG. 5A. Tumor growth in mice following implantation of 50, 150, or 500 OMP-LU77 tumor cells obtained from mice that had been treated with either control antibody (Control mAb), paclitaxel (Pac), or the combination of OMP-18R5 and paclitaxel (Van+Pac). FIG. 5B. Cancer stem cell (CSC) frequency in OMP-LU77 lung tumors following treatment with control antibody (Control mAb), paclitaxel, or a combination of OMP-18R5 antibody and paclitaxel (Van+Pac) as determined by limiting dilution analysis.
Limiting dilution assays (LDAs) can be used to assess the effect of Wnt pathway inhibitors on solid tumor cancer stem cells and/or on the tumorigenicity of a tumor. The assays can be used to determine the frequency of cancer stem cells in tumors from animals treated with the Wnt pathway inhibitor and to compare that frequency to the frequency of cancer stem cells in tumors from control animals. […]
For the LDA, the tumor cells in the suspension were harvested, counted, and appropriate cell doses (50, 150, and 500 cells) were injected subcutaneously in NOD/SCID mice (10 mice per cell dose per treatment group). […] The percentage of mice with detectable tumors was determined in all treatment groups and compared to the percentage of mice with detectable tumors in the controls. […]

[3] = system: OMP-C28 colon tumor cells; test: OMP-C28 colon tumor xenograft, staggered dosing of Wnt inhibitors and nab-paclitaxel (Example 10); details: Wnt pathway inhibitor 25 mg/kg every two weeks, administered 2 days prior to nab-paclitaxel 15 mg/kg once a week, i.p.; versus single agents; FIG. 8
Protocol: FIG. 8A-8B. Inhibition of colon tumor growth in vivo by a Wnt pathway inhibitor in combination with a taxane using a staggered dosing schedule. FIG. 8A. OMP-C28 colon tumor cells were injected subcutaneously into NOD/SCID mice. Mice were treated with control antibody (-•-), OMP-18R5 (-▴-), nab-paclitaxel (-▪-), or a combination of OMP-18R5 and nab-paclitaxel, where OMP-18R5 was administered 2 days prior to administration of nab-paclitaxel (-⋄-). FIG. 8B. OMP-C28 colon tumor cells were injected subcutaneously into NOD/SCID mice. Mice were treated with control antibody (-•-), OMP-54F28 (-▴-), nab-paclitaxel (-▪-), or a combination of OMP-54F28 and nab-paclitaxel, where OMP-54F28 was administered 2 days prior to administration of nab-paclitaxel (-⋄-). OMP-18R5, OMP-54F28 and control were administered at 25 mg/kg and nab-paclitaxel was administered at 15 mg/kg. OMP-18R5, OMP-54F28 and control were administered once every two weeks, paclitaxel was administered once a week, and all agents were administered intraperitoneally. Data is shown as tumor volume (mm^3) over days post treatment.
Single cell suspensions of xenograft OMP-C28 colon tumor cells were injected subcutaneously into 6-8 week old NOD/SCID mice. […] Tumor growth was monitored and tumor volumes were measured with electronic calipers at the indicated time points. Data are expressed as mean±S.E.M.

B1: OMP-18R5: anti-FZD antibody, IgG2, also known as vantictumab; heavy chain SEQ ID NO:3, light chain SEQ ID NO:4 (antibody)
heavy: EVQLVESGGGLVQPGGSLRLSCAASGFTFSHYTLSWVRQAPGKGLEWVSVISGDGSYTYYADSVKGRFTISSDNSKNTLYLQMNSLRAEDTAVYYCARNFIKYVFANWGQGTLVTVSSASTKGPSVFPLAPCSRSTSESTAALGCLVKDYFPEPVTVSWNSGALTSGVHTFPAVLQSSGLYSLSSVVTVPSSNFGTQTYTCNVDHKPSNTKVDKTVERKCCVECPPCPAPPVAGPSVFLFPPKPKDTLMISRTPEVTCVVVDVSHEDPEVQFNWYVDGVEVHNAKTKPREEQFNSTFRVVSVLTVVHQDWLNGKEYKCKVSNKGLPAPIEKTISKTKGQPREPQVYTLPPSREEMTKNQVSLTCLVKGFYPSDIAVEWESNGQPENNYKTTPPMLDSDGSFFLYSKLTVDKSRWQQGNVFSCSVMHEALHNHYTQKSLSLSPGK
light: DIELTQPPSVSVAPGQTARISCSGDNIGSFYVHWYQQKPGQAPVLVIYDKSNRPSGIPERFSGSNSGNTATLTISGTQAEDEADYYCQSYANTLSLVFGGGTKLTVLGQPKAAPSVTLFPPSSEELQANKATLVCLISDFYPGAVTVAWKADSSPVKAGVETTTPSKQSNNKYAASSYLSLTPEQWKSHRSYSCQVTHEGSTVEKTVAPTECS
**Q.** Which results are given for B1?
**A.** regression of established tumors [1]: induced a regression of the established breast tumors; inhibition of tumor growth (tumor volume) ([1]; versus other dosing regimens): significantly better at inhibiting tumor growth of the OMP-B90 breast tumor cells than any of the other dosing regimens; cancer stem cell frequency (limiting dilution analysis, L-Calc) [2]: significantly decreased the cancer stem frequency; inhibition of tumor growth (tumor volume) [3]: inhibited tumor growth of the OMP-C28 colon tumor cells to a greater extent than either the Wnt pathway inhibitors or nab-paclitaxel alone
